The values that follow come from article PMC5777263.

As usually defined, the stoichiometry N is a count of units in the complex or per binding partner.

Experiment [1] has as its target Thiobacillus denitrificans Betaproteobacteria proteasome homolog (Td-BPH) (Thiobacillus denitrificans). Description: SEC-SAXS; Shodex Kw-403 column, 20 °C, 20 mM HEPES-NaOH pH 8.0, 150 mM NaCl, 2 mM TCEP, 1% sucrose; Cm-BPH 8.25 mg/ml, Td-BPH 15 mg/ml; profiles fitted with dodecameric and tetradecameric crystal models (FoXS).
For experiment [2] the target is unchanged. Description: AUC + SEC-MALS; sedimentation velocity: 0.5 mg/ml protein in buffer A, 20 °C, 40,000 rpm; SEC-coupled multiangle light scattering; self-assembly.
Experiment [3] has the same target. Description: negative-stain electron microscopy; 0.1 mg/ml protein, 1% uranyl acetate, particles classified and averaged (EMAN2).
For experiment [4] the target is unchanged. Description: crystal structure; Td-BPH apo: hexagonal form P6(1)22 (100 mM sodium acetate pH 4.8, 1.2 M sodium nitrate) and orthorhombic form P2(1)2(1)2(1) (100 mM HEPES-NaOH pH 7.0, 600 mM NaF), 2.3 Å.
Experiment [5] deals with Cupriavidus metallidurans Betaproteobacteria proteasome homolog (Cm-BPH) (Cupriavidus metallidurans). The experiment can be described thus: crystal structure; Cm-BPH, space group P6, 2.1 Å, two monomers in the ASU; dodecamer called non-native, malonate molecules intercalated in the intersubunit clefts.
Experiment [6] shares this target. Description: SEC-SAXS; Shodex Kw-403 column, 20 °C, 20 mM HEPES-NaOH pH 8.0, 150 mM NaCl, 2 mM TCEP, 1% sucrose; Cm-BPH 8.25 mg/ml, Td-BPH 15 mg/ml; profiles fitted with dodecameric and tetradecameric crystal models (FoXS).
For experiment [7] the target is unchanged. Description: AUC + SEC-MALS; sedimentation velocity: 0.5 mg/ml protein in buffer A, 20 °C, 40,000 rpm; SEC-coupled multiangle light scattering; self-assembly.
Experiment [8] has the same target. Description: negative-stain electron microscopy; 0.1 mg/ml protein, 1% uranyl acetate, particles classified and averaged (EMAN2).

Turning to “Thiobacillus denitrificans Betaproteobacteria proteasome homolog (Td-BPH) (enzyme)”, the stoichiometry N in experiment [1], in experiment [2] and in experiment [4] was 14 subunits throughout. Further, the stoichiometry N (subunits per ring) in experiment [3] was 7.
For the substance “Cupriavidus metallidurans Betaproteobacteria proteasome homolog (Cm-BPH) (enzyme)”, the stoichiometry N in experiment [5] came out at 12 subunits; in experiment [6], 14 subunits; in experiment [7] it was 13.8 subunits. Further, the stoichiometry N (subunits per ring) in experiment [8] is 7.
